Reference: the supplement of paper PMC7877785
± gives the uncertainty stated by the source.

Assay: self-splicing fitness, log relative to wild type (ln ratio); higher = more splicing; Tetrahymena group I intron in knt gene, E. coli kanamycin selection, DiMSum; sequences stand for … in CUCUCU…GGAGGGAAAAGUUAUCAGGCAUGCACCUGGUAGCUAGUCUUUAAACCAAUAGAUUGCAUCGGUUUAAAAGGCAAGACCGUCAAAUUGCGGGAAAGGGGUCAACAGCCGUUCAGUACCAAGUCUCAGGGGAAACUUUGAGAUGGCCUUGCAAAGGGUAUGGUAAUAAGCUGACGGACAUGGUCCUAACCACGCAGCCAAGUCCUAAGUCAACAGAUCUUCUGUUGAUAUGGAUGCAGUUCACAGACUAAAUGUCGGUCGGGGAAGAUGUAUUCUUCUCAUAAGAUAUAGUCGGACCUCUCCUUAAUGGGAGCUAGCGGAUGAAGUGAUGCAACACUGGAGCCGCUGGGAACUAAUUUGUAUGCGAAAGUAUAUUGAUUAGUUUUGGAGUACUCGUGGUCG
Method in brief: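 Pooled colonies went to amplicon sequencing on an Illumina HiSeq 2500 after six replicate transformations. The plates were LB agar with 100 μg/mL carbenicillin, 50 μM IPTG and 0.2% rhamnose, with or without 25 μg/mL kanamycin, incubated overnight at 37°C or 30°C. The E. coli BL21(DE3) library had all eight P1ex-region intron nucleotides randomised, the intron placed in the knt kanamycin-resistance gene on pET-22b(+). DiMSum fitness is the error-weighted combination of replicate fold changes, kanamycin against none, normalised to wild type.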

Sequence | self-splicing fitness (ln) (30 °C) | self-splicing fitness (ln) (37 °C)
GGGUAGCAAUAUUACGGCUA | -0.886 ± 0.24 | -1.24 ± 0.22
UCCGAGCAAUAUUACGACUG | -2.56 ± 0.34 | -1.76 ± 0.37
GCUAAGCAAUAUUACGCCCG | -0.889 ± 0.11 | -0.34 ± 0.17
GUUCAGCAAUAUUACGUCGA | -0.842 ± 0.15 | -0.398 ± 0.13
CACCAGCAAUAUUACGUUGG | -4.24 ± 0.13 | -2.74 ± 0.13
AGCAAGCAAUAUUACGUAUU | -3.02 ± 0.14 | -1.24 ± 0.11
UAUUAGCAAUAUUACGACUA | -0.146 ± 0.096 | 0.46 ± 0.11
GAACAGCAAUAUUACGCGUU | -3.27 ± 0.12 | -2.69 ± 0.14
UGUUAGCAAUAUUACGGCCA | 0.385 ± 0.17 | 0.166 ± 0.14
GGUUAGCAAUAUUACGGGUA | -1.11 ± 0.22 | -1.39 ± 0.19
CGGUAGCAAUAUUACGCGCU | -3.13 ± 0.39 | 
AGGAAGCAAUAUUACGAAGG | -2.92 ± 0.28 | -2.8 ± 0.38
GAUAAGCAAUAUUACGCAAG | -2.51 ± 0.25 | -1.34 ± 0.21
AUCUAGCAAUAUUACGGCUC | -0.871 ± 0.16 | -0.185 ± 0.19
AACGAGCAAUAUUACGCGCG | -1.81 ± 0.28 | -1.75 ± 0.28
UCGUAGCAAUAUUACGGUCU | -2.83 ± 0.18 | -1.67 ± 0.16
GCAAAGCAAUAUUACGUACC | -0.781 ± 0.081 | -0.64 ± 0.12
CCCCAGCAAUAUUACGACAA |  | -2.78 ± 0.28
GUACAGCAAUAUUACGGUCA | -0.796 ± 0.068 | -0.618 ± 0.082
UUGCAGCAAUAUUACGUGCC | -2.11 ± 0.14 | -1.18 ± 0.15
CCGUAGCAAUAUUACGAGGA | -2.96 ± 0.24 | -1.24 ± 0.18
ACCCAGCAAUAUUACGUCAA | -1.88 ± 0.099 | -1.59 ± 0.11
GCUAAGCAAUAUUACGUCGU | -1.39 ± 0.072 | -1.3 ± 0.095
ACUUAGCAAUAUUACGAACC | -0.695 ± 0.21 | -0.285 ± 0.36
AUAUAGCAAUAUUACGAGGG | -2.57 ± 0.43 | 

Sequence | self-splicing fitness (ln) (30 °C) | self-splicing fitness (ln) (37 °C)
CCCAAGCAAUAUUACGUAUG | -4.01 ± 0.15 | -1.47 ± 0.11
GACGAGCAAUAUUACGCGAG | -2.3 ± 0.17 | -2.85 ± 0.26
AUUUAGCAAUAUUACGCUUA | -1.99 ± 0.17 | -0.321 ± 0.19
UGAUAGCAAUAUUACGUUCG | -0.432 ± 0.076 | 0.4 ± 0.1
GCAGAGCAAUAUUACGGUUA | -2.95 ± 0.17 | -2.17 ± 0.16
AGCUAGCAAUAUUACGCCUU | -1.7 ± 0.1 | -0.609 ± 0.08
GAGGAGCAAUAUUACGGGUA |  | -2.26 ± 0.36
CGGGAGCAAUAUUACGGGAC | -3.57 ± 0.3 | -3.25 ± 0.4
GCUCAGCAAUAUUACGGUUA | -0.772 ± 0.12 | -0.237 ± 0.11
AGCGAGCAAUAUUACGGCGU | -0.762 ± 0.11 | -0.808 ± 0.093
CCCUAGCAAUAUUACGCUGA | -3.14 ± 0.23 | -2.85 ± 0.38
AAGUAGCAAUAUUACGGCUG | -0.444 ± 0.083 | -0.731 ± 0.13
GGCGAGCAAUAUUACGUGUU | -2.5 ± 0.12 | -1.39 ± 0.14
AUCGAGCAAUAUUACGAGGU | -3.26 ± 0.3 | -2.93 ± 0.4
UUGUAGCAAUAUUACGACCG | -0.716 ± 0.36 | -0.156 ± 0.26
UACGAGCAAUAUUACGUCUA | -0.512 ± 0.1 | -0.152 ± 0.11
CGCUAGCAAUAUUACGAUAG | -1.9 ± 0.065 | -0.433 ± 0.085
UUAGAGCAAUAUUACGGCCU | -4.22 ± 0.39 | 
UUAUAGCAAUAUUACGCAUA | -2.43 ± 0.29 | -0.953 ± 0.18
CCCCAGCAAUAUUACGUGCA | -4.13 ± 0.18 | -2.17 ± 0.14
UUAAAGCAAUAUUACGCUAU | -3.01 ± 0.14 | -0.748 ± 0.1
CGUUAGCAAUAUUACGACUC | -0.808 ± 0.25 | 0.024 ± 0.23
ACUCAGCAAUAUUACGGCGU | -0.555 ± 0.059 | 0.0604 ± 0.074
CGCCAGCAAUAUUACGGAAA | -1.48 ± 0.17 | -1.93 ± 0.17
